Measured values published in the RNAGym collection of RNA variant scans (doi:10.1093/molbev/msab373).

B1: Azoarcus group I ribozyme (parent)
chain: GUGCCUUGCGCCGGGAAACCACGCAAGGGAUGGUGUCAAAUUCGGCGAAACCUAAGCGCCCGCCCGGGCGUAUGGCAACGCCGAGCCAAGCUUCGGCGCCUGCGCCGAUGAAGGUGUAGAGACUAGACGGCACCCACCUAAGGCAAACGCUAUGGUGAAGGCAUAGUCCAGGGAGUGGCGAAAGUCACACAAACCGG

Variants of: B1
Assay: reverse-splicing fitness (ratio to wild type); higher = more active; in vitro selection; Mg2+ level not given
How it was run: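 An in vitro group I ribozyme library with randomized positions was T7-transcribed and gel-purified. In triplicate, 10 pmol RNA in EPPS pH 7.5 was reacted with 50 pmoles of a 30-nt RNA substrate for 1 h at 37 °C across several added MgCl2 levels (1–48 mM), then stopped with EDTA. Products were reverse transcribed from a substrate-complementary primer, PCR-amplified and sequenced (HiSeq 4000). Fitness is a variant's read proportion after selection over that before, normalised to wild type.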
Work on C82U A111G A120C C150U C169G U176C yielded a reverse-splicing fitness of 0.0156. C82U A111G A120C C150U C169G U176A showed a reverse-splicing fitness of 0.0205. For C82U A111G A120C C150U C169G U176G, the reverse-splicing fitness was 0.00447. In the case of C82U A111G A120G A145C C150A C169A U176C, the reverse-splicing fitness is reported as 0.00481. C82U A111G A120G A145C C150A C169A U176A gave a reverse-splicing fitness of 0.0114. C82U A111G A120G A145C C150A C169A U176G gave a reverse-splicing fitness of 0.00425. With C82U A111G A120C A145U C150G U176A the reverse-splicing fitness was 0.00455. For C82U A111G A120C A145U C150G U176G, the reverse-splicing fitness was 0.00286. C82U A111G A120C A145U C150G U176C showed a reverse-splicing fitness of 0.00882. C82U A111G A120C A145C U176G gave a reverse-splicing fitness of 0.00487. With C82U A111G A120C A145C U176C the reverse-splicing fitness was 0.0213. In the case of C82U A111G A120C A145C U176A, the reverse-splicing fitness is reported as 0.0156. Work on C82U A111G A120G A145C C169G yielded a reverse-splicing fitness of 0.0123. For C82U A111G A120G A145C C169U, the reverse-splicing fitness was 0.00954. In the case of C82U A111G A120G A145C C169A, the reverse-splicing fitness is reported as 0.00792. In the case of C82U A111G A120C A145G C150G C169U U176C, the reverse-splicing fitness is reported as 0.0109. Work on C82U A111G A120C A145G C150G C169U U176G yielded a reverse-splicing fitness of 0.0053. With C82U A111G A120C A145G C150G C169U U176A the reverse-splicing fitness was 0.00704. In the case of C82U A111G A120G A145C C169A U176G, the reverse-splicing fitness is reported as 0.00366. C82U A111G A120G A145C C169A U176C showed a reverse-splicing fitness of 0.00572. C82U A111G A120G A145C C169A U176A gave a reverse-splicing fitness of 0.011. With C82U A111G A120G A145C C150A C169U U176G the reverse-splicing fitness was 0.00373. C82U A111G A120G A145C C150A C169U U176A gave a reverse-splicing fitness of 0.0192. With C82U A111G A120G A145C C150A C169U U176C the reverse-splicing fitness was 0.00907. In the case of C82U A111G A120G A145G C150G C169A U176C, the reverse-splicing fitness is reported as 0.0117. In the case of C82U A111G A120G A145G C150G C169A U176A, the reverse-splicing fitness is reported as 0.0123. With C82U A111G A120G A145G C150G C169A U176G the reverse-splicing fitness was 0.00756. With C82U A111G A120C A145G C169G U176A the reverse-splicing fitness was 0.0181. Variant C82U A111G A120C A145G C169G U176G has a reverse-splicing fitness of 0.00407. With C82U A111G A120C A145G C169G U176C the reverse-splicing fitness was 0.0179. Variant C82U A111G A120C A145U C150A C169G U176G has a reverse-splicing fitness of 0.00457. With C82U A111G A120C A145U C150A C169G U176A the reverse-splicing fitness was 0.0153. With C82U A111G A120C A145U C150A C169G U176C the reverse-splicing fitness was 0.0112. C82U A111G A120C C150U C169U U176G gave a reverse-splicing fitness of 0.0054. With C82U A111G A120C C150U C169U U176C the reverse-splicing fitness was 0.0151. C82U A111G A120C C150U C169U U176A gave a reverse-splicing fitness of 0.0154. C82U A111G A120C A145C C169A U176C showed a reverse-splicing fitness of 0.00404. Work on C82U A111G A120C A145C C169A U176A yielded a reverse-splicing fitness of 0.00738. C82U A111G A120C A145C C169A U176G showed a reverse-splicing fitness of 0.003. Variant C82U A111G A120C C169G U176C has a reverse-splicing fitness of 0.0156. Work on C82U A111G A120C C169G U176G yielded a reverse-splicing fitness of 0.00426. In the case of C82U A111G A120C C169G U176A, the reverse-splicing fitness is reported as 0.0168. In the case of C82U A111G A120C A145G C150U C169A, the reverse-splicing fitness is reported as 0.00939. C82U A111G A120C A145G C150U C169G showed a reverse-splicing fitness of 0.0102. Work on C82U A111G A120C A145G C150U C169U yielded a reverse-splicing fitness of 0.0127. Work on C82U A111G A120C A145U C150G C169G U176C yielded a reverse-splicing fitness of 0.00388. Variant C82U A111G A120C A145U C150G C169G U176A has a reverse-splicing fitness of 0.0063. Variant C82U A111G A120C A145U C150G C169G U176G has a reverse-splicing fitness of 0.00386. In the case of C82U A111G A120G A145C C150G C169U U176C, the reverse-splicing fitness is reported as 0.0102. C82U A111G A120G A145C C150G C169U U176G showed a reverse-splicing fitness of 0.00462. In the case of C82U A111G A120G A145C C150G C169U U176A, the reverse-splicing fitness is reported as 0.0136. C82U A111G A120C A145U C169U U176A showed a reverse-splicing fitness of 0.0139. Variant C82U A111G A120C A145U C169U U176C has a reverse-splicing fitness of 0.0132. Variant C82U A111G A120C A145U C169U U176G has a reverse-splicing fitness of 0.00307. For C82U A111G A120C A145C C150U U176G, the reverse-splicing fitness was 0.00465. Variant C82U A111G A120C A145C C150U U176C has a reverse-splicing fitness of 0.0114. C82U A111G A120C A145C C150U U176A gave a reverse-splicing fitness of 0.0105. Variant C82U A111G A120C A145G C150U C169G U176A has a reverse-splicing fitness of 0.0191. C82U A111G A120C A145G C150U C169G U176C gave a reverse-splicing fitness of 0.0188. For C82U A111G A120C A145G C150U C169G U176G, the reverse-splicing fitness was 0.00507. C82U A111G A120G A145C C150A C169U gave a reverse-splicing fitness of 0.00634. C82U A111G A120G A145C C150A C169A showed a reverse-splicing fitness of 0.00777. Work on C82U A111G A120G A145C C150A C169G yielded a reverse-splicing fitness of 0.00737. Variant C82U A111G A120G A145C C150U C169U U176C has a reverse-splicing fitness of 0.0091. In the case of C82U A111G A120G A145C C150U C169U U176G, the reverse-splicing fitness is reported as 0.00413. C82U A111G A120G A145C C150U C169U U176A showed a reverse-splicing fitness of 0.0196. Variant C82U A111G A120C A145G C150G C169A U176G has a reverse-splicing fitness of 0.00661. Work on C82U A111G A120C A145G C150G C169A U176A yielded a reverse-splicing fitness of 0.0113. C82U A111G A120C A145G C150G C169A U176C showed a reverse-splicing fitness of 0.0107. C82U A111G A120C C150G U176G showed a reverse-splicing fitness of 0.00249. For C82U A111G A120C C150G U176A, the reverse-splicing fitness was 0.00392. In the case of C82U A111G A120C C150G U176C, the reverse-splicing fitness is reported as 0.00984. For C82U A111G A120C A145U C150U C169A U176C, the reverse-splicing fitness was 0.00827. Work on C82U A111G A120C A145U C150U C169A U176G yielded a reverse-splicing fitness of 0.00488. Variant C82U A111G A120C A145U C150U C169A U176A has a reverse-splicing fitness of 0.0106. In the case of C82U A111G A120C C150U U176G, the reverse-splicing fitness is reported as 0.00651. With C82U A111G A120C C150U U176C the reverse-splicing fitness was 0.0218. C82U A111G A120C C150U U176A showed a reverse-splicing fitness of 0.0148. For C82U A111G A120C A145U C150G C169U, the reverse-splicing fitness was 0.00776. For C82U A111G A120C A145U C150G C169G, the reverse-splicing fitness was 0.00698. With C82U A111G A120C A145U C150G C169A the reverse-splicing fitness was 0.00804. Work on C82U A111G A120G A145C C150U U176G yielded a reverse-splicing fitness of 0.00386. Work on C82U A111G A120G A145C C150U U176A yielded a reverse-splicing fitness of 0.0079. With C82U A111G A120G A145C C150U U176C the reverse-splicing fitness was 0.00908.
